Test results taken from patent US20160272707A1 (COMPUGEN, published 2016).

What was measured:
[1] = biological target: T1, mouse VSTM5 (SEQ ID NO:11) expressed on HEK-293T cells (mouse, UniProt Q9D806 28-199); assay: FACS, IgG1 at 22 nM on 293-muVSTM5 cells; grade from ratio to 293-MT control cells (50-400)
T1 construct: also called mouse VSTM5 untagged
T1 sequence: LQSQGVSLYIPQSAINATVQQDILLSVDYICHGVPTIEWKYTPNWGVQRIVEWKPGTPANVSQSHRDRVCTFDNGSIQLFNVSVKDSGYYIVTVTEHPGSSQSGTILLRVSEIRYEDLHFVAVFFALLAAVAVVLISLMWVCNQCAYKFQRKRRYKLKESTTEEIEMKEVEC

VSTM5 monomer [2] = biological target: T2, VSTM5 monomer (UniProt A8MXK1 29-147, limits assumed); assay: SPR, VSTM5 monomer binding to the IgG (equilibrium binding constant)
T2 construct: also called monomeric VSTM5 antigen; VSTM5 antigen
T2 sequence (looked up): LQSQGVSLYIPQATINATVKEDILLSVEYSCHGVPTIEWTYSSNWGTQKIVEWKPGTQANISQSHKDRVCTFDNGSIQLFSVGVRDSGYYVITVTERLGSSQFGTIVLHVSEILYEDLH

[3] = biological target: T3, human VSTM5-EGFP (SEQ ID NO:133) expressed on HEK-293 cells (human); assay: FACS, IgG1 at 22 nM on 293-huVSTM5 (VSTM5-EGFP) cells; grade from ratio to 293-MT control cells (50-400)
T3 construct: Full-length human VSTM5 fused at its C-terminus to EGFP; also called VSTM5_GFP

VSTM5 monomer [4] = biological target: T2, VSTM5 monomer; assay: SPR, VSTM5 monomer binding to the IgG

B1: 50-01.B01 (antibody, V domains shown)
VH: QVQLQESGPGLMKPSQTLSLTCTVSGDSITRGSSYWSWIRQSDGKGLEWIGHIYSGGDTDYNPALKSRVTISADASRGQFLLRLTSMTAADTAVYYCARDRGAYGMDVWGQGTTVTVSS
VL: QPVLTQSSSASASLGASVKLTCTLSSEHDRYAIAWLQQKPEKGPRYLMKVNSDGSHRKGDGIPDRFSGSSSGAERYLTISRLQSEDEADYYCQTWGIGIRVFGGGTQLTVLG
notes: also called 50-01.801
- ratio of 293-muVSTM5 cell binding / 293-MT control cell binding (FACS) at 22 nM mAb [1]: 50 to 400 ratio
- Kd (VSTM5 monomer [2]): 657 nM
- ratio of 293-huVSTM5 cell binding / 293-MT control cell binding (FACS) at 22 nM mAb [3]: 50 to 400 ratio
- Kd (VSTM5 monomer [4]): 657 nM
